Earlier results on three substances are cited in publication PMC4125468.

As a reminder, the Kd is a measure of binding affinity in units of concentration.

Like-named read-outs stand apart in the source and are kept apart here.

Data set [1] addresses MD-2 (Homo sapiens) (UniProt Q9Y6Y9). Nature of the data set: radioligand binding.
The target in a further data set is sCD14 (Homo sapiens) (UniProt P08571).
The target of data set [2] is MD-2 (Homo sapiens) (UniProt Q9Y6Y9).

Chain of UniProt P08571 (P08571 20-345): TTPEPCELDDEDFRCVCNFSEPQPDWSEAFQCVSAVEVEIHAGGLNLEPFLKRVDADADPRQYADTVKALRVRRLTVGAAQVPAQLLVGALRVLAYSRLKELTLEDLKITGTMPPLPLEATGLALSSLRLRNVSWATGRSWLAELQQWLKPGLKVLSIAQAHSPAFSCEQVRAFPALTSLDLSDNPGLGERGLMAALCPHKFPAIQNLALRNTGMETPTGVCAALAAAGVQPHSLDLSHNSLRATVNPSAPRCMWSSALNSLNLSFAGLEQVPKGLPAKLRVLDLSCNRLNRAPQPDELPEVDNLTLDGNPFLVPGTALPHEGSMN

On to TLR4 ECD (from UniProt O00206), for which the Kd with MD-2 (Homo sapiens) [1] was 500 pM.
In the case of MD-2/TLR4ECD ECD (from UniProt Q9Y6Y9), in the data set with sCD14 (Homo sapiens), the Kd is 200 pM.
For the substance TLR4ECD ECD (from UniProt O00206), in the data set with MD-2 (Homo sapiens) [2], the Kd was 200 pM.
